Target: recombinant soluble homotrimeric HA of A/common magpie/Hong Kong/5052/07 (H5N1) (Influenza A virus A/common magpie/Hong Kong/5052/2007 (H5N1))
Assay: HA microarray, control mAb
Settings: remark: other sources report otherwise

B1: TCN-504 (3251_K17) (antibody, V domains shown)
VH: QVQLQESGPGLVKPSETLSLTCAVSGVSISNIDFYWGWIRQPPGKGLEWIGNIYYTGITFYNPSLSSRVAISIDTSKNQFSLTLTSVTAADTAMYYCARHYGDSEAINDAFDIWGQGTMLTVSS
VL: EIVMTQSPATLSVSPGERATLSCRASQSVGNSLAWYQQRPGQAPRLLIYGASTRATGIPPRFSGSGSGTEFTLTISSLQTEDFAVYYCQQYINWRPLSFGGGTKVEIK
Question: How did the Trimeric HA Binding RLU turn out when B1 was run?
Answer: 17000 RLU
